The values below come from PMC8634136 (The EMBO Journal, 2021).

B3: TIMELESS (natural protein, human)
chain: MDLHMMNCELLATCSALGYLEGDTYHKEPDCLESVKDLIRYLRHEDETRDVRQQLGAAQILQSDLLPILTQHHQDKPLFDAVIRLMVNLTQPALLCFGNLPKEPSFRHHFLQVLTYLQAYKEAFASEKAFGVLSETLYELLQLGWEERQEEDNLLIERILLLVRNILHVPADLDQEKKIDDDASAHDQLLWAIHLSGLDDLLLFLASSSAEEQWSLHVLEIVSLMFRDQNPEQLAGVGQGRLAQERSADFAELEVLRQREMAEKKTRALQRGNRHSRFGGSYIVQGLKSIGERDLIFHKGLHNLRNYSSDLGKQPKKVPKRRQAARELSIQRRSALNVRLFLRDFCSEFLENCYNRLMGSVKDHLLREKAQQHDETYYMWALAFFMAFNRAASFRPGLVSETLSVRTFHFIEQNLTNYYEMMLTDRKEAASWARRMHLALKAYQELLATVNEMDISPDEAVRESSRIIKNNIFYVMEYRELFLALFRKFDERCQPRSFLRDLVETTHLFLKMLERFCRSRGNLVVQNKQKKRRKKKKKVLDQAIVSGNVPSSPEEVEAVWPALAEQLQCCAQNSELSMDSVVPFDAASEVPVEEQRAEAMVRIQDCLLAGQAPQALTLLRSAREVWPEGDVFGSQDISPEEEIQLLKQILSAPLPRQQGPEERGAEEEEEEEEEEEEELQVVQVSEKEFNFLDYLKRFACSTVVRAYVLLLRSYQQNSAHTNHCIVKMLHRLAHDLKMEALLFQLSVFCLFNRLLSDPAAGAYKELVTFAKYILGKFFALAAVNQKAFVELLFWKNTAVVREMTEGYGSLDDRSSSRRAPTWSPEEEAHLRELYLANKDVEGQDVVEAILAHLNTVPRTRKQIIHHLVQMGLADSVKDFQRKGTHIVLWTGDQELELQRLFEEFRDSDDVLGHIMKNITAKRSRARIVDKLLALGLVAERRELYKKRQKKLASSILPNGAESLKDFCQEDLEEEENLPEEDSEEEEEGGSEAEQVQGSLVLSNENLGQSLHQEGFSIPLLWLQNCLIRAADDREEDGCSQAVPLVPLTEENEEAMENEQFQQLLRKLGVRPPASGQETFWRIPAKLSPTQLRRAAASLSQPEEEQKLQPELQPKVPGEQGSDEEHCKEHRAQALRALLLAHKKKAGLASPEEEDAVGKEPLKAAPKKRQLLDSDEEQEEDEGRNRAPELGAPGIQKKKRYQIEDDEDD
notes: Stood in the structure as a subunit of m3; residues 7-803 modelled (527-684 not visualised)

What all share (conditions): both partners purified
In one assay the target is T1, CLASPIN (human, UniProt Q9HAW4 1-1339).
T1 construct: CLASPIN, human; Only residues 284-319, 525-540 and 592-618 are modelled in the structure; source: Hi5 insect cells (baculovirus), purified (Flag M2, Superose 6)
T1 sequence (Q9HAW4 whole entry, the tested form may be a part): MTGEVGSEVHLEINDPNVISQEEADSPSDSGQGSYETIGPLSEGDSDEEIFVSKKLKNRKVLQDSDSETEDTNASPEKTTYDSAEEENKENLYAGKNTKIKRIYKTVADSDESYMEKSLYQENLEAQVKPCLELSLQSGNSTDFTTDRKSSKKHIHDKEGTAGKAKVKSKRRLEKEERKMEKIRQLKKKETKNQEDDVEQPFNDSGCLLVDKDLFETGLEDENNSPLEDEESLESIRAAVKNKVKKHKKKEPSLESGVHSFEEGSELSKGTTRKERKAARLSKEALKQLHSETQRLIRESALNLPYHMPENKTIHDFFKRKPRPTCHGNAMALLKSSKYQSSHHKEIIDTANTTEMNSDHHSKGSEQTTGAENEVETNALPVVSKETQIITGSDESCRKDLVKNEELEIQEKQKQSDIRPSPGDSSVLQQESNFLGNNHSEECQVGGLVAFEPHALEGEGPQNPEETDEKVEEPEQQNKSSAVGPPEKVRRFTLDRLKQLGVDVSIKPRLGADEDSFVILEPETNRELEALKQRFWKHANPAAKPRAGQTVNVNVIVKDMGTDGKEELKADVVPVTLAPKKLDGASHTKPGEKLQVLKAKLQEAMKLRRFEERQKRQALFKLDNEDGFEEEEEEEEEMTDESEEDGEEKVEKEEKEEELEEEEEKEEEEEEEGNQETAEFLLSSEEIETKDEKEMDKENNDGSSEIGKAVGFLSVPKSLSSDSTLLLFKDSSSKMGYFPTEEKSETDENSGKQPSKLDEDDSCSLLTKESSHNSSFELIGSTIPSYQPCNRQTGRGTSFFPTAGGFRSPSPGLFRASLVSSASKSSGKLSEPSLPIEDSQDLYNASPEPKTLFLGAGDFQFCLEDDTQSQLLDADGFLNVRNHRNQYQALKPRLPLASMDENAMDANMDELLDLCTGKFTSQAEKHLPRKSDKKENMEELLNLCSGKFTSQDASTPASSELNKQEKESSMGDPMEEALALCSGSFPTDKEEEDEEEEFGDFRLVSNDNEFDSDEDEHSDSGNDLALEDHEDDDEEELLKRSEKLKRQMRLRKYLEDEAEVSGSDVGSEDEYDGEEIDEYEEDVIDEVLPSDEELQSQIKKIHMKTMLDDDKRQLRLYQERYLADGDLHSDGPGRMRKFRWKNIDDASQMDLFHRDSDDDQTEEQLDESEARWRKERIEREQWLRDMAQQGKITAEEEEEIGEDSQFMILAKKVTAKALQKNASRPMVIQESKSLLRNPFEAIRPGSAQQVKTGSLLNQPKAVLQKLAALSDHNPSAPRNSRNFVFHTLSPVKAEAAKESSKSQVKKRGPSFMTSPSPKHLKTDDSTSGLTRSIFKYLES
The assay can be described thus: cryo-EM structure; replisome reconstituted on fork DNA with AMP-PNP, isolated on a glycerol gradient with glutaraldehyde and BS3; 3.2 Å overall; a sample without CLASPIN solved at 3.4 Å.

The assay “TIMELESS” concerns the target B3. Described as above.
Another assay has as its target T2, MCM3 (human, UniProt P25205-1 1-808).
T2 construct: human MCM3, subunit of hsCMG; the construct lacks the 45 additional N-terminal residues of the longer isoform used in PDB 6XTX; Subunit of the CMG helicase in the replisome structure; source: Hi5 insect cells co-infected with baculoviruses for MCM2-7, GINS and CDC45; purified as hsCMG (Flag M2, Strep-Tactin XT, MonoQ)
T2 sequence: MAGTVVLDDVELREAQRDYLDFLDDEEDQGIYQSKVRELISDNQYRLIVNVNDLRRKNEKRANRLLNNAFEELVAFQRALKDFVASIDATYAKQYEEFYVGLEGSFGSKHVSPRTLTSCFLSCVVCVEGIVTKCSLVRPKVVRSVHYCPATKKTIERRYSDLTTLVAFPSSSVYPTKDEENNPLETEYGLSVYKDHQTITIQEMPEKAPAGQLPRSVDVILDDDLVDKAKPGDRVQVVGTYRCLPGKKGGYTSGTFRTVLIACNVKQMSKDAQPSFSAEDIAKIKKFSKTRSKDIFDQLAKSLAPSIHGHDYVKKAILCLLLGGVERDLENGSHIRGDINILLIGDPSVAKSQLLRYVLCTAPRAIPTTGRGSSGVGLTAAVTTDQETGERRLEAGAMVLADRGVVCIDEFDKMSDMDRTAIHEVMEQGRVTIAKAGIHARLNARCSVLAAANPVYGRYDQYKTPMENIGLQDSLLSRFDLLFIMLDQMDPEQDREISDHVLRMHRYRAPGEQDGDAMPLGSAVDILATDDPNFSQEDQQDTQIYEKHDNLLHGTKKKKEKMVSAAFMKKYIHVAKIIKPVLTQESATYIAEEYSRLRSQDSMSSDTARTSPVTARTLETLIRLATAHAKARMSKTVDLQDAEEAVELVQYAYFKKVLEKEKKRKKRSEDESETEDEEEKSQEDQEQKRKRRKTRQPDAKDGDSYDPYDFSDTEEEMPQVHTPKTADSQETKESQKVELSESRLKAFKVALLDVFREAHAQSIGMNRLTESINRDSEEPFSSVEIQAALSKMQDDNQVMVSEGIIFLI
The assay can be described thus: cryo-EM structure; core human replisome (100 nM hsCMG with 1.5-fold excess of AND-1, TIMELESS-TIPIN, Pol ε, CLASPIN) on fork DNA with AMP-PNP; glycerol gradient with glutaraldehyde and BS3; consensus map 3.2 Å and multi-body map of Pol ε/CDC45/GINS; PDB 7PFO.

B1: MCM6 (natural protein, human)
chain: MDLAAAAEPGAGSQHLEVRDEVAEKCQKLFLDFLEEFQSSDGEIKYLQLAEELIRPERNTLVVSFVDLEQFNQQLSTTIQEEFYRVYPYLCRALKTFVKDRKEIPLAKDFYVAFQDLPTRHKIRELTSSRIGLLTRISGQVVRTHPVHPELVSGTFLCLDCQTVIRDVEQQFKYTQPNICRNPVCANRRRFLLDTNKSRFVDFQKVRIQETQAELPRGSIPRSLEVILRAEAVESAQAGDKCDFTGTLIVVPDVSKLSTPGARAETNSRVSGVDGYETEGIRGLRALGVRDLSYRLVFLACCVAPTNPRFGGKELRDEEQTAESIKNQMTVKEWEKVFEMSQDKNLYHNLCTSLFPTIHGNDEVKRGVLLMLFGGVPKTTGEGTSLRGDINVCIVGDPSTAKSQFLKHVEEFSPRAVYTSGKASSAAGLTAAVVRDEESHEFVIEAGALMLADNGVCCIDEFDKMDVRDQVAIHEAMEQQTISITKAGVKATLNARTSILAAANPISGHYDRSKSLKQNINLSAPIMSRFDLFFILVDECNEVTDYAIARRIVDLHSRIEESIDRVYSLDDIRRYLLFARQFKPKISKESEDFIVEQYKHLRQRDGSGVTKSSWRITVRQLESMIRLSEAMARMHCCDEVQPKHVKEAFRLLNKSIIRVETPDVNLDQEEEIQMEVDEGAGGINGHADSPAPVNGINGYNEDINQESAPKASLRLGFSEYCRISNLIVLHLRKVEEEEDESALKRSELVNWYLKEIESEIDSEEELINKKRIIEKVIHRLTHYDHVLIELTQAGLKGSTEGSESYEEDPYLVVNPNYLLED
notes: MCM6, human; Stood in the structure as a subunit of m1; source: Hi5 insect cells, purified as a subunit of hsCMG
For the molecule B1, the binding result with CLASPIN and with TIMELESS was “binds” each time.

B2: POLE2 (natural protein, human)
chain: MAPERLRSRALSAFKLRGLLLRGEAIKYLTEALQSISELELEDKLEKIINAVEKQPLSSNMIERSVVEAAVQECSQSVDETIEHVFNIIGAFDIPRFVYNSERKKFLPLLMTNHPAPNLFGTPRDKAEMFRERYTILHQRTHRHELFTPPVIGSHPDESGSKFQLKTIETLLGSTTKIGDAIVLGMITQLKEGKFFLEDPTGTVQLDLSKAQFHSGLYTEACFVLAEGWFEDQVFHVNAFGFPPTEPSSTTRAYYGNINFFGGPSNTSVKTSAKLKQLEEENKDAMFVFLSDVWLDQVEVLEKLRIMFAGYSPAPPTCFILCGNFSSAPYGKNQVQALKDSLKTLADIICEYPDIHQSSRFVFVPGPEDPGFGSILPRPPLAESITNEFRQRVPFSVFTTNPCRIQYCTQEITVFREDLVNKMCRNCVRFPSSNLAIPNHFVKTILSQGHLTPLPLYVCPVYWAYDYALRVYPVPDLLVIADKYDPFTTTNTECLCINPGSFPRSGFSFKVFYPSNKTVEDSKLQGF
notes: human POLE2, subunit of Pol ε; residues 1-527 modelled; Purified with POLE1, POLE3 (C-terminal TEV CBP tag) and POLE4
B2: the binding result in the assay with MCM3 was “binds”.

For B3, in the assay with CLASPIN, the binding result is given as “binds”.
